Laboratory results taken from article doi:10.1101/2024.03.15.584944 (bioRxiv, 2024).

Experiments:
C1q [1] = molecular target: T1, C1q (human (endogenous in normal human serum), UniProt P02745 23-245; P02746 28-253; P02747 29-245); assay: ELISA
C1q [2] = molecular target: T1, C1q; assay: MST

T1 sequence (P02745 23-245, chain 1 of 3): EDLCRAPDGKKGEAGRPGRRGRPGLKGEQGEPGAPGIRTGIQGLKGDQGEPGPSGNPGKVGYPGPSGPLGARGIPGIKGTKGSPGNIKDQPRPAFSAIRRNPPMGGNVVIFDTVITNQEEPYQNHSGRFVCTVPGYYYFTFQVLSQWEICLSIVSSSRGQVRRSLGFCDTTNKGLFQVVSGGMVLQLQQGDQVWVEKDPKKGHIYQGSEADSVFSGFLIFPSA
T1 sequence (P02746 28-253, chain 2 of 3): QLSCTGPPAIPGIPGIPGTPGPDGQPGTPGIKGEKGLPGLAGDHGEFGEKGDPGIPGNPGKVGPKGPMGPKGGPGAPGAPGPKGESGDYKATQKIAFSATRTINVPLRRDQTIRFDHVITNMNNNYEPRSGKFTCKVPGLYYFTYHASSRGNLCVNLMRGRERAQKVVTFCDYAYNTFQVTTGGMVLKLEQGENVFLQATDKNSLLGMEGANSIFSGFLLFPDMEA
T1 sequence (P02747 29-245, chain 3 of 3): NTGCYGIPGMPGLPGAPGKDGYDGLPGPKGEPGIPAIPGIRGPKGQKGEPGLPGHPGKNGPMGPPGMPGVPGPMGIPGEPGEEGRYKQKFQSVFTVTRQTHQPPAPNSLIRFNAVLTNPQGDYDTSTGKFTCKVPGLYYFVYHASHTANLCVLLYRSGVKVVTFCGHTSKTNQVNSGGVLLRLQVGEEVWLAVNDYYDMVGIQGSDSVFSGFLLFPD

Row | Binder | binding result (C1q [1]) | Kd (C1q [2]) [nM]
1 | rMAP-1 (natural protein, UniProt P48740-3 20-380, looked up) HTVELNNMFGQIQSPGYPDSYPSDSEVTWNITVPDGFRIKLYFMHFNLESSYLCEYDYVKVETEDQVLATFCGRETTDTEQTPGQEVVLSPGSFMSITFRSDFSNEERFTGFDAHYMAVDVDECKEREDEELSCDHYCHNYIGGYYCSCRFGYILHTDNRTCRVECSDNLFTQRTGVITSPDFPNPYPKSSECLYTIELEEGFMVNLQFEDIFDIEDHPEVPCPYDYIKIKVGPKVLGPFCGEKAPEPISTQSHSVLILFHSDNSGENRGWRLSYRAAGNECPELQPPVHGKIEPSQAKYFFKDQVLVSCDTGYKVLKDNVEMDTFQIECLKDGTWSNKIPTCKKNEIDLESELKSEQVTE | binds | 
2 | rMASP-1 (enzyme, UniProt P48740 20-699, looked up) HTVELNNMFGQIQSPGYPDSYPSDSEVTWNITVPDGFRIKLYFMHFNLESSYLCEYDYVKVETEDQVLATFCGRETTDTEQTPGQEVVLSPGSFMSITFRSDFSNEERFTGFDAHYMAVDVDECKEREDEELSCDHYCHNYIGGYYCSCRFGYILHTDNRTCRVECSDNLFTQRTGVITSPDFPNPYPKSSECLYTIELEEGFMVNLQFEDIFDIEDHPEVPCPYDYIKIKVGPKVLGPFCGEKAPEPISTQSHSVLILFHSDNSGENRGWRLSYRAAGNECPELQPPVHGKIEPSQAKYFFKDQVLVSCDTGYKVLKDNVEMDTFQIECLKDGTWSNKIPTCKIVDCRAPGELEHGLITFSTRNNLTTYKSEIKYSCQEPYYKMLNNNTGIYTCSAQGVWMNKVLGRSLPTCLPVCGLPKFSRKLMARIFNGRPAQKGTTPWIAMLSHLNGQPFCGGSLLGSSWIVTAAHCLHQSLDPEDPTLRDSDLLSPSDFKIILGKHWRLRSDENEQHLGVKHTTLHPQYDPNTFENDVALVELLESPVLNAFVMPICLPEGPQQEGAMVIVSGWGKQFLQRFPETLMEIEIPIVDHSTCQKAYAPLKKKVTRDMICAGEKEGGKDACAGDSGGPMVTLNRERGQWYLVGTVSWGDDCGKKDRYGVYSYIHHNKDWIQRVTGVRN | binds | 
3 | Zymogen rMASP-3 (enzyme, human, UniProt P48740-2 20-728, looked up, RED-tris-NTA dye on the His tag (in the MST only)) HTVELNNMFGQIQSPGYPDSYPSDSEVTWNITVPDGFRIKLYFMHFNLESSYLCEYDYVKVETEDQVLATFCGRETTDTEQTPGQEVVLSPGSFMSITFRSDFSNEERFTGFDAHYMAVDVDECKEREDEELSCDHYCHNYIGGYYCSCRFGYILHTDNRTCRVECSDNLFTQRTGVITSPDFPNPYPKSSECLYTIELEEGFMVNLQFEDIFDIEDHPEVPCPYDYIKIKVGPKVLGPFCGEKAPEPISTQSHSVLILFHSDNSGENRGWRLSYRAAGNECPELQPPVHGKIEPSQAKYFFKDQVLVSCDTGYKVLKDNVEMDTFQIECLKDGTWSNKIPTCKIVDCRAPGELEHGLITFSTRNNLTTYKSEIKYSCQEPYYKMLNNNTGIYTCSAQGVWMNKVLGRSLPTCLPECGQPSRSLPSLVKRIIGGRNAEPGLFPWQALIVVEDTSRVPNDKWFGSGALLSASWILTAAHVLRSQRRDTTVIPVSKEHVTVYLGLHDVRDKSGAVNSSAARVVLHPDFNIQNYNHDIALVQLQEPVPLGPHVMPVCLPRLEPEGPAPHMLGLVAGWGISNPNVTVDEIISSGTRTLSDVLQYVKLPVVPHAECKTSYESRSGNYSVTENMFCAGYYEGGKDTCLGDSGGAFVIFDDLSQRWVVQGLVSWGGPEECGSKQVYGVYTKVSNYVDWVWEQMGLPQSVVEPQVER |  | 69.6
